B1: dynactin p150^Glued coiled-coil 1B (CC1B), residues 381–530 (domain or fragment, R. norvegicus, UniProt P28023 381-530, looked up)
chain: SSEKQEHVKLQKLMEKKNQELEVVRQQRERLQEELSQAESTIDELKEQVDAALGAEEMVEMLTDRNLNLEEKVRELRETVGDLEAMNEMNDELQENARETELELREQLDMAGARVREAQKRVEAAQETVADYQQTIKKYRQLTAHLQDVN
notes: also called p150^Glued CC1B; source: E. coli BL21 Star (DE3), purified (Ni-NTA, Ulp1 cleavage, HiTrap Q XL, Superdex 75); not shown: His6, N-terminal, cleaved; SMT3 (S. cerevisiae SUMO), N-terminal, cleaved
B2: p150^Glued CC2 (residues 928–1049) (domain or fragment, rat (numbering stated as rat, p-0002), UniProt P28023 928-1049, looked up)
chain: AALRAEITDAEGLGLKLEDRETVIKELKKSLKIKGEELSEANVRLSLLEKKLDSAAKDADERIEKVQTRLEETQTLLRKKEKEFEETMDALQADIDQLEAEKTELKQRLNSQSKRTIEGLRG
notes: Unpublished observation of the authors
B3: S. cerevisiae dynein intermediate chain Pac11, residues 1–86, wild type (domain or fragment, UniProt P40960 1-86, looked up)
chain: MERLKQLEEKRRQLKELRERRKQASLFPGSETMGHHPTEVHAKATMVSVSVQTDMEEGSKIQEPQSAYLRRKEVITYDKGIQTDQI
notes: S. cerevisiae dynein intermediate chain Pac11, residues 1-86; Cloned in pGEX 6P-3; also called wt-Pac11^1–86; Pac11 1–86; source: E. coli BL21 Star (DE3), purified (Glutathione Sepharose 4B, precision protease, Superdex 75)
B4: dynactin p150^Glued coiled-coil 1A (CC1A), residues 204–348 (domain or fragment, R. norvegicus, UniProt P28023 204-348, looked up)
chain: PGAAPPLPSPSKEEEGLRDQVRDLEEKLETLRLKRSEDKAKLKELEKHKIQLEQVQEWKSKMQEQQADLQRRLKEAKEAKEALEAKERYMEEMADTADAIEMATLDKEMAEERAESLQQEVEALKERVDELTTDLEILKAEIEEK
notes: R. norvegicus dynactin p150Glued, residues 204-348; Dimer at 4°C by sedimentation equilibrium; source: E. coli BL21 Star (DE3), purified (Ni-NTA, Ulp1 cleavage, HiTrap Q XL, Superdex 75); not shown: His6, N-terminal, cleaved; SMT3 (S. cerevisiae SUMO), N-terminal, cleaved

Key:
[1] = biological target: the molecule itself; assay: AUC; sedimentation equilibrium of the p150Glued fragments alone, 4°C, 1x PBS, 1 mM TCEP; monomer-dimer model (dimer to monomers)
[2] = biological target: the molecule itself; assay: not stated; unpublished observation
[3] = biological target: B1; assay: native gel or EMSA; native PAGE; purified proteins incubated at 25°C for five minutes in equimolar or two fold molar excess; 12% gels with a stacking gel at pH 7.4 or 8–25% gradient gels; settings: both partners purified

For B1, which Kd [1] is on record?
The Kd was < 60 nM.

And the “stoichiometry N” value [1]?
Its value is 2.

For B2, which “stoichiometry N” value [2] is on record?
The value was 2.

Does B3 bind [3]?
Result: binds

Which Kd [1] does the source give for B4 here?
Its Kd is < 40 nM.

What about the “stoichiometry N” value [1] of the same binder?
The value was 2.

Source: PMC3618186, “Dynein and Dynactin Leverage Their Bivalent Character to Form a High-Affinity Interaction” (PLoS ONE, 2013)
